Data from article PMC10132805.

Assays:
[1] = molecular target: FITC - UL56 46-55 (HHV2) (Human herpesvirus 2 (strain HG52) (HHV-2))
[2] = molecular target: FITC - ARRB2 370-379 (Human) (Homo Sapiens)
[3] = molecular target: centrosomal protein of 55 kDa EABR domain (CEP55 EABR) (human) (UniProt Q53EZ4)
[4] = molecular target: C terminal domain of polyadenylate-binding protein 1 (human) (UniProt P11940)
[5] = molecular target: N-terminal domain of clathrin (CLTC NTD) (human) (UniProt Q00610)
[6] = molecular target: V domain of programmed cell death 6-interacting protein (ALIX V) (human) (UniProt Q8WUM4)
[7] = molecular target: programmed cell death 6-interacting protein (ALIX) V domain (human)
[8] = molecular target: FITC - gag 493-502 (HIV1) (Human immunodeficiency virus type 1 group N (isolate YBF30) (HIV-1))
[9] = molecular target: E3 ubiquitin-protein ligase NEDD4 WW4 domain (human)
[10] = molecular target: E3 ubiquitin-protein ligase NEDD4 WW2 domain (human)
[11] = molecular target: FITC - PDCD6IP 797-809 (Human) (Homo Sapiens)

N-terminal domain of clathrin (CLTC NTD) (human), sequence (Q00610 whole entry, the tested form may be a part): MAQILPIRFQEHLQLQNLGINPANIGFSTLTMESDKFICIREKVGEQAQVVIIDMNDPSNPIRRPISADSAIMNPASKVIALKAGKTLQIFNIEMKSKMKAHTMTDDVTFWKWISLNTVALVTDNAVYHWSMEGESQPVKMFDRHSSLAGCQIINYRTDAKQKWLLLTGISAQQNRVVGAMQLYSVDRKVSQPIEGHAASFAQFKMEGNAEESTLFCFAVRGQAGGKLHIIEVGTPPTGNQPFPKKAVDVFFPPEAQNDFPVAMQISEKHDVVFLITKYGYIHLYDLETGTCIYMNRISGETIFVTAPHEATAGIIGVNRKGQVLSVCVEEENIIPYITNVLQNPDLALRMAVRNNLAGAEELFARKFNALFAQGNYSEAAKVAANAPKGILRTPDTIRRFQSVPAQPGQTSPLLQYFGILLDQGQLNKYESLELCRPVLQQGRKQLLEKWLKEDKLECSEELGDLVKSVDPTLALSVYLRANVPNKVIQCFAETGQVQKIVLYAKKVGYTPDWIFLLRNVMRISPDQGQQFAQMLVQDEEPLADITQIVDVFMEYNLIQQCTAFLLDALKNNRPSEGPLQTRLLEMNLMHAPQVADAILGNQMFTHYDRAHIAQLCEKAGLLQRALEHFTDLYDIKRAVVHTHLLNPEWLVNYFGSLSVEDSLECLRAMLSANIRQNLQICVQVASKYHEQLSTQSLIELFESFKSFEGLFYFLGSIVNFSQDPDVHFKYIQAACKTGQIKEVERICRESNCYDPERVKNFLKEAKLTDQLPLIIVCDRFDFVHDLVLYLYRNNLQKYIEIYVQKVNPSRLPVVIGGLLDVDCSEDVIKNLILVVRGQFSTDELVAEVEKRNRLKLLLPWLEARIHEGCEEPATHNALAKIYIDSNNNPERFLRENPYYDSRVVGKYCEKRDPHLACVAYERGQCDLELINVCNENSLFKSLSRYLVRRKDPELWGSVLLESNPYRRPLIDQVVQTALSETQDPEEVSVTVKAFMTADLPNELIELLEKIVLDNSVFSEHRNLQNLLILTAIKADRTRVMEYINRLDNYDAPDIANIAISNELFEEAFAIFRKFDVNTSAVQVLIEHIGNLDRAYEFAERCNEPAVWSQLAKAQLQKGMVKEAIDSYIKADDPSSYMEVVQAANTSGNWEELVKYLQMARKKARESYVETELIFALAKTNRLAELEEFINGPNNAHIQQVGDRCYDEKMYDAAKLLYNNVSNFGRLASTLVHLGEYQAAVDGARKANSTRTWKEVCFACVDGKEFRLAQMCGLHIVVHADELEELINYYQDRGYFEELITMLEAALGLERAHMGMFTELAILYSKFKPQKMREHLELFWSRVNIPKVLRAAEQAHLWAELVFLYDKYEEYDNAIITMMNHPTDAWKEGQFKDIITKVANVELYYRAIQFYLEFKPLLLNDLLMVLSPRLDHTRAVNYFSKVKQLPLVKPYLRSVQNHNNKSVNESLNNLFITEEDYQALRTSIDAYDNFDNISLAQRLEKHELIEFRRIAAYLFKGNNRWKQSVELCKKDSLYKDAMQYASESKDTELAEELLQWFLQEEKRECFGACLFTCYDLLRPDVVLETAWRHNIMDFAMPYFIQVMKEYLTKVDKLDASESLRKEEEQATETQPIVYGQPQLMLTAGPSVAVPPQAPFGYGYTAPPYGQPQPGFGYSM
centrosomal protein of 55 kDa EABR domain (CEP55 EABR) (human), sequence (Q53EZ4 whole entry, the tested form may be a part): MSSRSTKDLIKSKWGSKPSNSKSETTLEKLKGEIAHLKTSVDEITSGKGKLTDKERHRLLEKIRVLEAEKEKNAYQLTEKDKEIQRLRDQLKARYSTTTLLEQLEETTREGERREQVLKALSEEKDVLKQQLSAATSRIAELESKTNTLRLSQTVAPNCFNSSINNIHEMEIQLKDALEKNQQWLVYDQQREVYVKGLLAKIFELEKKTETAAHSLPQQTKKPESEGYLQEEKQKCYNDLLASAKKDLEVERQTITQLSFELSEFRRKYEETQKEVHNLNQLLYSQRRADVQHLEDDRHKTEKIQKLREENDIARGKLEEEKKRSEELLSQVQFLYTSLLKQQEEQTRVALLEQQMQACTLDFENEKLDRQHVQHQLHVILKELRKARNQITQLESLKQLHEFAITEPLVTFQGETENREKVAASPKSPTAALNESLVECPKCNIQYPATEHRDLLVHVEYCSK
V domain of programmed cell death 6-interacting protein (ALIX V) (human), sequence (Q8WUM4 whole entry): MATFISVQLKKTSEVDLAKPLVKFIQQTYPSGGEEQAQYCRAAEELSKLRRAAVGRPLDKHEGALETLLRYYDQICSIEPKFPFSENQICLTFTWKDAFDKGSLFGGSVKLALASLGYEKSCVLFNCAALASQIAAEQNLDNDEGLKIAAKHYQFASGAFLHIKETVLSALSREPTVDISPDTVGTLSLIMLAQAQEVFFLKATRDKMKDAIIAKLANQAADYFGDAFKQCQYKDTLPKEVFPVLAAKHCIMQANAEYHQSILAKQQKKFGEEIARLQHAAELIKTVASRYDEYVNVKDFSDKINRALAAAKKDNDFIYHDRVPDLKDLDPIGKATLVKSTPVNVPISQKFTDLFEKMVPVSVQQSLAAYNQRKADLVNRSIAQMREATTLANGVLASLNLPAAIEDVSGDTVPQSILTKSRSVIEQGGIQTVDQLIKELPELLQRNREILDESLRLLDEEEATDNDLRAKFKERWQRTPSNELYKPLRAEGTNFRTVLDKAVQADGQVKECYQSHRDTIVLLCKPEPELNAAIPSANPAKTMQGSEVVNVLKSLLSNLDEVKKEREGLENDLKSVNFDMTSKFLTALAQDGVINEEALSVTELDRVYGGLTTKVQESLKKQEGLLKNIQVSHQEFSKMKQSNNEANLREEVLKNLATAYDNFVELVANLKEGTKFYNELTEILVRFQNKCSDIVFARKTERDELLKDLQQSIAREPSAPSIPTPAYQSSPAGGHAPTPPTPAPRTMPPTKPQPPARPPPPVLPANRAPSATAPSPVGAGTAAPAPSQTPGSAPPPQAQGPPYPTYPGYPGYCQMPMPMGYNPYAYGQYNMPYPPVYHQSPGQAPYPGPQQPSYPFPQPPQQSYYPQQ
E3 ubiquitin-protein ligase NEDD4 WW2 domain (human), sequence (P46934 whole entry, the tested form may be a part): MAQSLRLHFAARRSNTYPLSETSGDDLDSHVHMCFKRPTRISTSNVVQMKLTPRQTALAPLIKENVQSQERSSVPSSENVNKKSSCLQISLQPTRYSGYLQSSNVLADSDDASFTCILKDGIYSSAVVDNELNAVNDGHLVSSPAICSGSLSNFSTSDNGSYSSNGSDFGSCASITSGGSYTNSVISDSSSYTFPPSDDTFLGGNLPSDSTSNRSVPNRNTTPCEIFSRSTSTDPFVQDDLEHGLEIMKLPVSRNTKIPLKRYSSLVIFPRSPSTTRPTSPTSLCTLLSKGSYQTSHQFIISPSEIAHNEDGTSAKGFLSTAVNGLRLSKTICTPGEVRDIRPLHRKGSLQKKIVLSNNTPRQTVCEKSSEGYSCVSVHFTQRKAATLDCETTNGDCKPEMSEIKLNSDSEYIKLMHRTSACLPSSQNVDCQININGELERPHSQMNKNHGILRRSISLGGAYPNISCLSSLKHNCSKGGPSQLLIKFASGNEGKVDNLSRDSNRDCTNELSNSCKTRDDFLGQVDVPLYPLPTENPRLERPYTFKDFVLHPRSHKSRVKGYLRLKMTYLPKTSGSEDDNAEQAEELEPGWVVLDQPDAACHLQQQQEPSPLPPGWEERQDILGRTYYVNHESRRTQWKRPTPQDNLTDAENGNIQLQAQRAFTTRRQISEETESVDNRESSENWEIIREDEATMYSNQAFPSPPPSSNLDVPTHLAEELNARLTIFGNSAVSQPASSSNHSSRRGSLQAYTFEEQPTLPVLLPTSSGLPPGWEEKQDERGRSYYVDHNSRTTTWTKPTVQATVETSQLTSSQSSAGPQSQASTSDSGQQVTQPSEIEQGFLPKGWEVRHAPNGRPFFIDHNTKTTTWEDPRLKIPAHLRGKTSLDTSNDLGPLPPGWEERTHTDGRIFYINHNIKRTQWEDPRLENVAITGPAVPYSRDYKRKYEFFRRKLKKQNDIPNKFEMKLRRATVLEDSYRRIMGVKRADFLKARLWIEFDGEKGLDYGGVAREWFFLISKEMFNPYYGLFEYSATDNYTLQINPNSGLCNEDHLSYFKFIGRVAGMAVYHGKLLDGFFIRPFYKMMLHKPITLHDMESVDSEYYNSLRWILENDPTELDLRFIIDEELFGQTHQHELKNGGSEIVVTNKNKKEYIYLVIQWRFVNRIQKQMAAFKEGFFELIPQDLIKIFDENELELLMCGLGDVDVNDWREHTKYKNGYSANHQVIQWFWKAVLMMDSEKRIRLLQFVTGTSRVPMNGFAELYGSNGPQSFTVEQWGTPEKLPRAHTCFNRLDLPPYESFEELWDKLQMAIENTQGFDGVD
E3 ubiquitin-protein ligase NEDD4 WW4 domain (human), sequence (P46934 whole entry, the tested form may be a part): as above
C terminal domain of polyadenylate-binding protein 1 (human), sequence (P11940 544-623): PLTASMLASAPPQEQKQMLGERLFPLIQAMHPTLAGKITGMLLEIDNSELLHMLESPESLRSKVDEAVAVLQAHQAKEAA

E3 ubiquitin-protein ligase NEDD4 WW2 domain (domain or fragment)
Kd [1]: 16 µM

E3 ubiquitin-protein ligase NEDD4 WW4 domain (domain or fragment)
Kd [1]: 82 µM

N-terminal domain of clathrin (CLTC NTD) (from UniProt Q00610 1-1675) (domain or fragment)
Kd [2]: 26 µM

NP 602-617 (REBOV) (peptide)
Kd [3]: 2.18 µM

N_(2-17) (BeV) peptide
fold weaker affinity than PAIP2(108-123) [4]: 10 fold

Nsp3 1765-1780 (EEEV) (peptide)
Kd [5]: 28 µM

Nsp4 118-142 (BAV) (peptide)
Kd [6]: 160 µM

Nsp4 119-134 (BAV) (peptide)
Kd [6]: 101 µM

Nsp4_(118-142) (BAV) peptide
fold weaker affinity than the syntenin-2 peptide [7]: > 300 fold

P 177-192 (RABV) (peptide)
Kd [3]: 22.3 µM

RdRp 1840-1855 (SVV) (peptide)
Kd [5]: 800 µM

V domain of programmed cell death 6-interacting protein (ALIX V) (from UniProt Q8WUM4 1-868) (domain or fragment)
Kd [8]: 2.6 µM

VP40 1-20 (SEBOV) (peptide)
Kd [9]: 68 µM | Kd [10]: 22 µM

centrosomal protein of 55 kDa EABR domain (CEP55 EABR) (from UniProt Q53EZ4 1-464) (domain or fragment)
Kd [11]: 0.31 µM

mu-NS 705-720 (MRV1) (peptide)
Kd [5]: 34 µM
